The values that follow come from US20240043489A1, “Cytokine Prodrugs Comprising a Cleavable Linker” (Trutino Biosciences Inc., priority 2020, published 2024).

For one data set, the system named is collagen IV. The data set is described as follows: Retention linker peptide binding to collagen IV-coated beads. As to conditions: peptides 20 uM, 2 hours. How it is done:
(§1) A series of peptides comprising an MMP cleavable site with or without the addition of a tumor retention sequence were synthesized and conjugated to the fluorophore EDANS (5-((2-Aminoethyl)amino)naphthalene-1-sulfonic acid) (custom synthesis, ThermoFisher). […] These peptides were then tested for their ability to bind ECM proteins such as heparin, fibronectin and collagen which are found in abundance in the tumor stroma.
(§2) For fibronectin and collagen binding assays, streptavidin coupled magnetic beads (Mag Sepharose, Cytiva and Dynabeads, ThermoFisher, respectively) were first incubated with biotin-labelled fibronectin (Cytoskeleton) or biotin-labelled collagen IV (Prospec) for 1 Hr with gentle shaking. Following multiple washes, the ECM-coated beads were then incubated with Edans Peptides (20 uM) for 2 hours at room temperature with shaking in neutral or acidic binding buffer. Beads were then washed and resuspended in 100 uL of binding buffer in a black 96-well plate. Peptide binding was quantified by measuring the fluorescence of samples using excitation/emission spectra of EDANS (Ex 340/Em 490).

In a further data set the test system is fibronectin. The data set is described as follows: Retention linker peptide binding to fibronectin-coated beads. Particulars: peptides 20 uM. The procedure:
as §1, §2

Data set [1] has as its system Heparan sulfate proteoglycans. Particulars: DTx protein derived; Note 1; cited from earlier work.
The next data set concerns MC38 tumor. Put plainly: Intra-tumoral injection in syngeneic MC38 colorectal cancer model. It counts as in vivo, mice.
The target in a further data set is T1, MMP9 (Mus musculus, UniProt P41245).
T1 construct: purchased R&D Systems
Put plainly: Cleavage of fusion protein by MMP9 protease (SDS-PAGE / Western blot). It counts as biochemical. How it is done: (§3) Recombinant MMP9 and/or MMP2 (R&D Systems) was first activated with p-aminophenylmercuric acetate and this activated protease or equivalent amount of activating solution without the protease was used to digest or mock digest the fusion protein for 1 hr, 2 hr, 4 hr and overnight (18-22 hr) at 37 C. Cleavage assays are set up in TCNB buffer: 50 mM Tris, 10 mM CaCl2), 150 mM NaCl, 0.05% Brij-35 (w/v), pH 7.5. Digested protein was aliquoted and stored at −80° C. prior to testing. Aliquots of digests were subsequently analyzed by SDS-PAGE followed by Western blotting to evaluate the extent of cleavage. Digests were also assessed in functional assays such as CTLL-2 proliferation and HEK-Blue Interleukin reporter assays. As shown in FIGS. 2A-E, essentially complete cleavage by MMP9 protease of the fusion proteins with functional site is seen after overnight incubation. In contrast, proteins containing a scrambled MMP cleavage site are not cut (FIG. 2E).
Untreated and digested fusion proteins were evaluated for cleavage products by Western blot. The following monoclonal antibodies were used: rat anti-mouse IL-2 antibody (JES6-1A12; ThermoFisher), goat anti-mouse IL-2 polyclonal antibody (AF-402-NA; R&D systems), mouse anti-6xHis monoclonal antibody (MA1-21315, ThermoFisher), Anti-mIgG Fc HRP conjugated (ThermoFisher cat #A16084), and Anti-human IL2 antibody (Invitrogen, cat #MA5-17097, mouse IgG1). Detection was performed using either a goat anti-rat HRP-conjugated antibody, Donkey Anti-goat HRP-conjugated antibody or Goat Anti-mouse HIRP conjugated (Jackson Immuno Research, West Grove, PA) and developed using the SuperSignal West Femto Maximum sensitivity detection reagent (ThermoFisher) following the manufacturer's recommendations.
For orientation: Immunoblotting shows a protein as a band on a membrane.

The next data set relates to CTLL-2 cells. Put plainly: CTLL-2 proliferation assay (MTT). It counts as cell-based. The procedure: as §3
IL-2 activity was measured using either CTLL-2 cells (ATCC) or the reporter cell line HEK Blue IL2 (Invivogen, San Diego). In brief, for the CTLL-2 assay a titration of untreated and digested samples is added to 40 000 CTLL-2 cells per well in 100 ul medium in a 96-well plate and incubated at 37C in 5% CO2 for 18-22 hr. At the end of this period, 50ug/well Thiazolyl Blue Tetrazolium Bromide (MTT) (Sigma-Aldrich) was added and the plate was incubated for 5 hr at 37C in 5% CO2. Cells were lysed with 100 µl/well 10% SDS (Sigma) acidified with HCl, incubated at 37C for 4 hr, and absorbance was read at 570 nm. Recombinant human or mouse IL-2 (Peprotech and R&D systems respectively) was used as a positive control. FIGS. 3A-B, 3K-L and 3N-P show examples of untreated and digested fusion proteins evaluated in CTLL-2 proliferation assay.

The test system of the next data set is EMT6 tumor. As to conditions: mouse, in vivo, iv, 8 mg/kg.
Data set [2] addresses collagen (agarose cross-linked to collagen, Sigma). Put plainly: pulldown on collagen-agarose beads, anti-mouse IL-2 immunoblot, bound fraction normalized to Construct B.
For data set [3] the target is unchanged. Put plainly: pulldown on collagen-agarose beads, anti-mouse IL-2 immunoblot, band quantified with iBright.
Data set [4] has as its target collagen cross-linked to agarose (Sigma). The data set is described as follows: pulldown with collagen-agarose beads, anti-mouse IL-2 immunoblot quantified with iBright imaging system.

Positions count from the first letter of the chain named. In names and notes the source's numbering stands. Entries after “also recorded” stand apart in the source; their conditions may differ. Where no end group is shown, it is not given here. The star is where a group is joined. EDANS = O=S(=O)(O)c1cccc2c(NCCN*)cccc12

T1 sequence (P41245 108-730): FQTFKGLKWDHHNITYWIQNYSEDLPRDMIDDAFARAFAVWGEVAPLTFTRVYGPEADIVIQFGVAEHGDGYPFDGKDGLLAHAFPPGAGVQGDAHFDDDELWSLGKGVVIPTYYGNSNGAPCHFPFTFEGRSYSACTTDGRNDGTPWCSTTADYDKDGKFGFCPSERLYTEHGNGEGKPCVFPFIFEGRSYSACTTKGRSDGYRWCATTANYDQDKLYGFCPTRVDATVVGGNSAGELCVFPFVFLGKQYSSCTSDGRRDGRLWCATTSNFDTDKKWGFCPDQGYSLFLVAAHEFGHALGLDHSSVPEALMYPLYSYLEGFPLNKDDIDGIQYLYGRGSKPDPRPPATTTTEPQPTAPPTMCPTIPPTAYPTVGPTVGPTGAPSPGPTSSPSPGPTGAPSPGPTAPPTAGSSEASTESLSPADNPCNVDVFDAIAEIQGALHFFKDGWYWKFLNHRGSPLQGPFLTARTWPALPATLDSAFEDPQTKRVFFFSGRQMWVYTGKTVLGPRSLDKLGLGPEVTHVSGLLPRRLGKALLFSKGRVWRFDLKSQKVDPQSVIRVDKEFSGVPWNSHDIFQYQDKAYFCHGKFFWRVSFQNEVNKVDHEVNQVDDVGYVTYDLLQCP
Description for EMT6 tumor: We assessed the levels of IL-2 fusion proteins present in tumors in vivo by utilizing fluorescently labelled proteins and real-time whole-body imaging. Non-cleavable Construct GGG and Construct DD were conjugated to Dylight 650 probe according to the manufacturer's protocol (Dylight 650 Antibody labeling kit, ThermoFisher). […] BALB/c mice were subcutaneously inoculated with EMT6 breast cancer syngeneic model and when the average tumor volume reached 240 mm^3, animals were randomized into 3 groups based on tumor volumes (n=2 mice per treatment group).
Following a single dose of the labeled IL-2 fusion proteins to tumor-bearing mice, fluorescent images (excitation 640/emission 680 consistent with Dylight 650 probe ex/em spectra) were captured over 96 hrs on an IVIS system (PerkinElmer, IVIS Lumina Series III) and are shown in FIG. 15A. The fluorescence intensity in tumor area was quantified across the groups, average background tumor fluorescence (group 1) was subtracted from group 2 and 3 values at each time-point, and data was normalized to the initial fluorescence intensity of same amount of each labeled protein.
Protocol for MC38 tumor: Tumors and body weights were measured twice a week for the duration of the study. Tumor volumes were calculated using the following equation: (longest diameter*shortest diameter^2)/2.

On to “peptide 14: EDANS-conjugated MMP linker peptide with GPLGVRG site; retention motif target Collagen IV (KLWVLPKGPLGVRG-{EDANS}; also: EDANS fluorophore conjugated at 3' end)”, for which the “binding to collagen IV” value in the data set on collagen IV is “strongly binds collagen IV”.

As to “peptide 13: EDANS-conjugated MMP linker peptide with GPLGVRG site; retention motif target pH dependent fibronectin (GGGWSHWGPLGVRG-{EDANS}; also: EDANS fluorophore conjugated at 3' end)”, in the data set on fibronectin, the “binding to fibronectin at pH6 vs pH 7.5” value is recorded as “enhanced binding at pH6”. The binding to fibronectin result in the data set with fibronectin (2 hours) is “able to bind fibronectin”.

On to 640 (DVIRDKTKTKIESLK) [Construct 640], for which, in data set [1], the “binds to HSGP, affinity” value was “binds to HSGP with low affinity (DTx protein)”.

Take “peptide 15: EDANS-conjugated MMP linker peptide GGGSG...; retention motif target Collagen I (GGGSGLHERHLNNN-{EDANS}; also: EDANS fluorophore conjugated at 3' end)”: in the data set with collagen IV, the “binding to collagen IV” value is “binds to a lesser extent”.

Consider 639 (NGRKIRMRCRAIDGD) [Construct 639], for which, in [1], the “binds to HSGP, affinity” value is “binds to HSGP with high affinity (DTx protein)”.

B1: Construct A: SEQ ID NO 100: mIL2-2x(SG4)-MMPcs1-2x(G4S)-IL2Ralpha-6His (protein)
chain: APTSSSTSSSTAEAQQQQQQQQQQQQHLEQLLMDLQELLSRMENYRNLKLPRMLTFKFYLPKQATELKDLQCLEDELGPLRHVLDLTQSKSFQLEDAENFISNIRVTVVKLKGSDNTFECQFDDESATVVDFLRRWIAFCQSIISTSPQSGGGGSGGGGGPLGVRGGGGGSGGGGSELCLYDPPEVPNATFKALSYKNGTILNCECKRGFRRLKELVYMRCLGNSWSSNCQCTSNSHDKSRKQVTAQLEHQKEQQTTTDMQKPTQSMHQENLTGHCREPPPWKHEDSKRIYHFVEGQSVHYECIPGYKALQRGPAISICKMKCGKTGWTQPQLTCVDEREHHRFLASEESQGSRNSSPESETSCPITTTDFPQPTETTAMTETFVLTMEYKHHHHHH
On to B1, for which the anti-tumor activity result in the data set with MC38 tumor (daily intra-tumoral injection, 10 injections, Construct A 70ug/day, r hIL2 5 ug/day) is recorded as “substantially inhibited tumor growth; also recorded: complete elimination of tumor”. The “tumor establishment after re-challenge with MC38 cells” value in the data set on MC38 tumor (re-inoculated on Day 40, a month after re-challenge) is “Tumor growth was rejected; also recorded: no tumor mass was established”. In addition, the “time at which cleavage product was detectable” value in the data set with MMP9 (+MMP-9 digestion, Western blot) came to 1 h. Further, in the data set with MMP9 (overnight +MMP time point), the “full-length cytokine prodrug remaining” value was “substantially undetectable”. Also, the “greater activity of MMP-9 treated than untreated construct (EC50 comparison)” value in the data set with CTLL-2 cells (CTLL-2 proliferation) is reported as 10 fold. For the same molecule, the “CTLL-2 cell proliferation, MMP-9 treated construct” value in the data set with CTLL-2 cells (cleaved by MMP-9) is on record as “stimulates CTLL-2 cell proliferation in a dose dependent manner”.

B2: Construct DD: SEQ ID NO 814: m IL2-2x(GHHPH)-MMPscr-2x(G4S)-mIL2Ra(1-215)-mu IgG1 Fc (protein)
chain: APTSSSTSSSTAEAQQQQQQQQQQQQHLEQLLMDLQELLSRMENYRNLKLPRMLTFKFYLPKQATELKDLQCLEDELGPLRHVLDLTQSKSFQLEDAENFISNIRVTVVKLKGSDNTFECQFDDESATVVDFLRRWIAFCQSIISTSPQGHHPHGHHPHGVRLGPGGGGGSGGGGSELCLYDPPEVPNATFKALSYKNGTILNCECKRGFRRLKELVYMRCLGNSWSSNCQCTSNSHDKSRKQVTAQLEHQKEQQTTTDMQKPTQSMHQENLTGHCREPPPWKHEDSKRIYHFVEGQSVHYECIPGYKALQRGPAISICKMKCGKTGWTQPQLTCVDEREHHRFLASEESQGSRNSSPESETSCPITTTDFPQPTETTAMTETFVLTMEYKGCKPCICTVPEVSSVFIFPPKPKDVLTITLTPKVTCVVVDISKDDPEVQFSWFVDDVEVHTAQTQPREEQFNSTFRSVSELPIMHQDWLNGKEFKCRVNSAAFPAPIEKTISKTKGRPKAPQVYTIPPPKEQMAKDKVSLTCMITDFFPEDITVEWQWNGQPAENYKNTQPIMDTDGSYFVYSKLNVQKSNWEAGNTFTCSVLHEGLHNHHTEKSLSHSPGK
For the molecule B2, in the data set on EMT6 tumor, the “tumor-associated fluorescence relative to Construct GGG” value is “roughly 2 fold”.

B3: Construct B (Fc fusion)
chain: APTSSSTSSSTAEAQQQQQQQQQQQQHLEQLLMDLQELLSRMENYRNLKLPRMLTFKFYLPKQATELKDLQCLEDELGPLRHVLDLTQSKSFQLEDAENFISNIRVTVVKLKGSDNTFECQFDDESATVVDFLRRWIAFCQSIISTSPQSGGGGSGGGGGPLGVRGGGGGSGGGGSELCLYDPPEVPNATFKALSYKNGTILNCECKRGFRRLKELVYMRCLGNSWSSNCQCTSNSHDKSRKQVTAQLEHQKEQQTTTDMQKPTQSMHQENLTGHCREPPPWKHEDSKRIYHFVEGQSVHYECIPGYKALQRGPAISICKMKCGKTGWTQPQLTCVDEREHHRFLASEESQGSRNSSPESETSCPITTTDFPQPTETTAMTETFVLTMEYKGCKPCICTVPEVSSVFIFPPKPKDVLTITLTPKVTCVVVDISKDDPEVQFSWFVDDVEVHTAQTQPREEQFNSTFRSVSELPIMHQDWLNGKEFKCRVNSAAFPAPIEKTISKTKGRPKAPQVYTIPPPKEQMAKDKVSLTCMITDFFPEDITVEWQWNGQPAENYKNTQPIMDTDGSYFVYSKLNVQKSNWEAGNTFTCSVLHEGLHNHHTEKSLSHSPGK
For B3, the Normalized (fold (relative to Construct B)) in data set [2] stood at 1. Moreover, in data set [3], the Bound worked out at 2310 and the Bound (% input) worked out at 0.3%.

B4: Construct II (Fc fusion)
chain: B3 chain with G151L, G152H, G153E, G154R, S155H, G156L, G157N, G158N, G159N
In data set [2], B4 displayed a Normalized (fold (relative to Construct B)) of 1.4. In data set [3], this molecule returned a Bound of 2280 and a Bound (% input) of 0.4%.

B5: Construct GG (Fc fusion)
chain: B3 chain with G153K, G154L, S155W, G156V, G157L, G158P, G159K
B5 registered a Normalized (fold (relative to Construct B)) in data set [2] of 2.5. In [3], this molecule yielded a Bound of 5190 and a Bound (% input) of 0.7%.

B6: Construct II: m IL2-…-MMPcs1-2x(G4S)-mIL2Ra(1-215)-mu IgG1 Fc (Fc fusion)
chain: B3 chain with G151L, G152H, G153E, G154R, S155H, G156L, G157N, G158N, G159N
As for B6, the fraction bound (% of input) in data set [4] is < 1 % of input.

B7: Construct GG: m IL2-SGG-KLWVLPK-MMPcs1-2x(G4S)-mIL2Ra(1-215)-mu IgG1 Fc (Fc fusion)
chain: B3 chain with G153K, G154L, S155W, G156V, G157L, G158P, G159K
On to B7, for which, in data set [4], the fraction bound (% of input) is < 1 % of input.
